Assay [1] has as its target T1, AnkG_MBD 'site-1' mutant (Phe141Gln, Phe164Gln) (rat).
T1 chain: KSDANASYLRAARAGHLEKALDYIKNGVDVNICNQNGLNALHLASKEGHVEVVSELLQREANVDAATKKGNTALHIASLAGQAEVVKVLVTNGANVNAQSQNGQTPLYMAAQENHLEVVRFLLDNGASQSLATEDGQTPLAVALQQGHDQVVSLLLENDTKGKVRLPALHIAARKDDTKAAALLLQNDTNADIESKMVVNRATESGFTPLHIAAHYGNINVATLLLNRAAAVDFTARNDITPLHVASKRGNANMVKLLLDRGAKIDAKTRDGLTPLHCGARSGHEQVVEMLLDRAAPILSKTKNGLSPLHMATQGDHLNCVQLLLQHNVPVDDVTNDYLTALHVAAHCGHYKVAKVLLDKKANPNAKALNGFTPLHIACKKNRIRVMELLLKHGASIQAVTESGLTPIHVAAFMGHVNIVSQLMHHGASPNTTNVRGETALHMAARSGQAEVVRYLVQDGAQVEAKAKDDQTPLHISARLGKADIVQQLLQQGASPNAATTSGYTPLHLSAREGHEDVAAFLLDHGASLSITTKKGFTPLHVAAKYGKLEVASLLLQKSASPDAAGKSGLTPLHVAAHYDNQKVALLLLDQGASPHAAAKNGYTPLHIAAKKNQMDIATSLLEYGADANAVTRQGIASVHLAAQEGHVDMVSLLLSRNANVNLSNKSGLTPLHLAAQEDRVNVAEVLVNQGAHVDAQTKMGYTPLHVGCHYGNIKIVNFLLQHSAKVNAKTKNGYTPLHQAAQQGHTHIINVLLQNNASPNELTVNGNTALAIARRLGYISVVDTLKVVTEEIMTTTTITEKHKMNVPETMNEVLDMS
Put plainly: ITC.

Assay [2] addresses T2, AnkG 38–855 (AnkG MBD-AI-c protein; MBD + partial AI-c) (rat, UniProt O70511-1 38-855).
T2 chain: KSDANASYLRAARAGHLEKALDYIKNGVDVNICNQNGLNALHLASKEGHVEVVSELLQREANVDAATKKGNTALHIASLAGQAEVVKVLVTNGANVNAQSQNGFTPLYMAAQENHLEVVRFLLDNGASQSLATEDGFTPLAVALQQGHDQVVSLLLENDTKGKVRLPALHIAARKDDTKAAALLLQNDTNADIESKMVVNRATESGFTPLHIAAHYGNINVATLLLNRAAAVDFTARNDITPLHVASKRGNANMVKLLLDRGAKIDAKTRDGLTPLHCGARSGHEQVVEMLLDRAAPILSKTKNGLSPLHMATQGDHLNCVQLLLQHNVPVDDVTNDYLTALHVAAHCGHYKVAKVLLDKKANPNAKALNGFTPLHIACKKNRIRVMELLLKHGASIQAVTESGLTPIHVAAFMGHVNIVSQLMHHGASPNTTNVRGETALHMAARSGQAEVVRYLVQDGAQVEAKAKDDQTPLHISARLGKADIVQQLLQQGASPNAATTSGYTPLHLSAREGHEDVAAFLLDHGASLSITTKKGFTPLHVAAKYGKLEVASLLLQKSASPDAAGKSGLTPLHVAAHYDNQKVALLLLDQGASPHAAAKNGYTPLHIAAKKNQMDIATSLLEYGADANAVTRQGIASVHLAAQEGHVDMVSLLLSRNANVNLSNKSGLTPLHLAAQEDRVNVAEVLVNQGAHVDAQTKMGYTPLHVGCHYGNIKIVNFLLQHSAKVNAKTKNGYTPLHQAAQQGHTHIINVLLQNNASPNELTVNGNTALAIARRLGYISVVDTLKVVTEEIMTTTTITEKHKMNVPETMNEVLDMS
As to the kind of experiment: ITC.

In assay [3] the target is T3, AnkG_MBD 'site-2' mutant (Ile277Gln, Leu310Gln) (rat, UniProt O70511-1 38-855, Ile277Gln | Leu310Gln).
T3 sequence: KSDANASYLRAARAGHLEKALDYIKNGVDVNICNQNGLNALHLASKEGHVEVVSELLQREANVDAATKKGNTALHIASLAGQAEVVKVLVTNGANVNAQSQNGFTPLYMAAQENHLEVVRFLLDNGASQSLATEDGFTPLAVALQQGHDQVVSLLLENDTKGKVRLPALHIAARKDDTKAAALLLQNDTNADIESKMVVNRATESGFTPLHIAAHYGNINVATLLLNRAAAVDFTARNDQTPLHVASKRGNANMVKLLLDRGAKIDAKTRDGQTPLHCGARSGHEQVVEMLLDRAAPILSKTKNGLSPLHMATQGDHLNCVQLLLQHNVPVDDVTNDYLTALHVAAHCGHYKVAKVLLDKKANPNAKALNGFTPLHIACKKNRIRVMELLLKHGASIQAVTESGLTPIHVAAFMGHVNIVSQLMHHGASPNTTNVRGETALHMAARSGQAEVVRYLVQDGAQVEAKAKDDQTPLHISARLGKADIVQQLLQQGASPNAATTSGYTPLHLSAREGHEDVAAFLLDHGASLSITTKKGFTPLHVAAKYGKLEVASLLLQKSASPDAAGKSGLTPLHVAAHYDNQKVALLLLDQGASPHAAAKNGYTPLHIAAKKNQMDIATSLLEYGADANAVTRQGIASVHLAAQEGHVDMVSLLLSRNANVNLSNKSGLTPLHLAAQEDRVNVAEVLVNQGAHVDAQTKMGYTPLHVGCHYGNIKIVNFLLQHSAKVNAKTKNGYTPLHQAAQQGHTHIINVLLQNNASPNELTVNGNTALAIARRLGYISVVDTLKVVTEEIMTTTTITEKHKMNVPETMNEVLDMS
As to the kind of experiment: ITC.

The target of assay [4] is T4, AnkB MBD 'site-2' mutant (Ile267Gln, Leu300Gln) (human, UniProt Q01484-2 28-847, Ile267Gln | Leu300Gln).
T4 sequence: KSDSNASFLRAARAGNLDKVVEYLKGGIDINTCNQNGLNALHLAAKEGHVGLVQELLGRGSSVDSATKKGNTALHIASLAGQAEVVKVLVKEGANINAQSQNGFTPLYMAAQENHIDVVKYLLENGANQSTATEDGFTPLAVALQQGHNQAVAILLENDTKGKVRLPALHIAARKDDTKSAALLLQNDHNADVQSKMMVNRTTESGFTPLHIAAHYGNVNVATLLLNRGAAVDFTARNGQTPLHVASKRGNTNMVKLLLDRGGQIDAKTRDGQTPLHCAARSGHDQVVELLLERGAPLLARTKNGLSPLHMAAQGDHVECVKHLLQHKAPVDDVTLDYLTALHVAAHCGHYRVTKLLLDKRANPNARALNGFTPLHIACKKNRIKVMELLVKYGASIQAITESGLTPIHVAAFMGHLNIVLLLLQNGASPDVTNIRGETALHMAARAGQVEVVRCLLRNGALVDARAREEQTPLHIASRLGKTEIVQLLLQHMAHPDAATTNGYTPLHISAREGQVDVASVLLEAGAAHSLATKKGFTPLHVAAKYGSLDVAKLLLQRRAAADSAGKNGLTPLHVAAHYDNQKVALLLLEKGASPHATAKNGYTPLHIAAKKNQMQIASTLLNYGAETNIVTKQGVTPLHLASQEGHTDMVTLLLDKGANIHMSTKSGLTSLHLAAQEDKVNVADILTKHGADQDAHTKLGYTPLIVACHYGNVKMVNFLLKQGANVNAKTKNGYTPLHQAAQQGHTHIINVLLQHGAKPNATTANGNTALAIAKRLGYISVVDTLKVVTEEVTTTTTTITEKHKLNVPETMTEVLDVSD
Put plainly: ITC.

Assay [5] has as its target T5, AnkB 28–847 (MBD + partial AI-c) (human, UniProt Q01484-2 28-847).
T5 chain: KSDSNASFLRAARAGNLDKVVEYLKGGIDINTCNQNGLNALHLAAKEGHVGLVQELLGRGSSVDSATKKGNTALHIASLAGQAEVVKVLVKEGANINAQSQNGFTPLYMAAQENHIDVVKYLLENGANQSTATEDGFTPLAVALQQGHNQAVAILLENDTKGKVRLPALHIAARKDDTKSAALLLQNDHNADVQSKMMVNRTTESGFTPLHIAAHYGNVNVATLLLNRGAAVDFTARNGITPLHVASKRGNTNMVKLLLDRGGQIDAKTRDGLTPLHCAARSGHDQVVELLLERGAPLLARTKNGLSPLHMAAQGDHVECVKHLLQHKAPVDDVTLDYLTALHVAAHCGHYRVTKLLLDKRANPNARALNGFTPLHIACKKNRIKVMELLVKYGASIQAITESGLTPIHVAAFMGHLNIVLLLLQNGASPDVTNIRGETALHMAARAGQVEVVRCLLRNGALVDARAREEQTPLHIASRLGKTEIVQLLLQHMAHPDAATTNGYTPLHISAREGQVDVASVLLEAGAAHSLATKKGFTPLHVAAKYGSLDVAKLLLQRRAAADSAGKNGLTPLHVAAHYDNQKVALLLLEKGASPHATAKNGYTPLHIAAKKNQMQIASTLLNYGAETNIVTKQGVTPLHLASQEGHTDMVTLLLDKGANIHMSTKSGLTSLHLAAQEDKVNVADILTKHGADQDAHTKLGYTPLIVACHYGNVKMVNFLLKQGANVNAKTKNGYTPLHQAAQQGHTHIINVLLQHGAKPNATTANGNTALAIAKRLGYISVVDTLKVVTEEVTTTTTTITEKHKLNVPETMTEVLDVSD
As to the kind of experiment: ITC.

Assay [6] concerns the target T2, AnkG 38–855 (AnkG MBD-AI-c protein; MBD …). Put plainly: ITC; two sites.

B1: AnkG linker ΔAI-c (aa 861–920) (domain or fragment)
chain: KASAPEKLSDGEYISDGEEGEDAITGDTDKYLGPQDLKELGDDSLPAEGYVGFSLGARSA
Take B1: the values for the Kd in assay [1], in assay [2] and in assay [3] were 2.6 µM, 1.6 µM and 3.9 µM, respectively.

B2: AnkB_AI-b (aa 865–896) (domain or fragment)
chain: EDLKELGDDSLPSSQFLDGMNYLRYSLEGGRS
With B2, the Kd worked out at 8.5 µM in assay [4] and 3.7 µM in assay [5].

B3: AnkG long linker (aa 837–920; AI-c + AI-b) (domain or fragment)
chain: TEKHKMNVPETMNEVLDMSDDEVGKASAPEKLSDGEYISDGEEGEDAITGDTDKYLGPQDLKELGDDSLPAEGYVGFSLGARSA
As to B3, in assay [6], the Kd is ~3 µM.

The record behind these values is publication PMC5779224 (2017).
